The record followed here is paper PMC4558368.

For orientation: Kd means the constant that tells how readily two partners part at equilibrium. High values mean a looser complex, low ones a tighter complex.

In this assay the target is Extracellular region of FcγRIIIa (residues 19-193, V158 allotype) (UniProt P08637). In words: SPR.

Substance “Human IgG1 Fc T299A (aglycosylated variant) (domain or fragment)” had a Kd greater than 50 µM. Regarding “Human IgG1 Fc D265A (glycosylated variant) (domain or fragment)”, the Kd was greater than 50 µM.
